According to article PMC9922296, “Mechanistic insights into RNA surveillance by the canonical poly(A) polymerase Pla1 of the MTREC complex” (Nature Communications, 2023):

B1: C-terminal RRM domain of Pla1 (Pla1RRM, residues 352-566), purified [S. pombe] / Red1 residues 288-345 (Pla1 interaction region), purified [S. pombe] (parent)
chain 1: ISLPLLKQDDWLSSSKPFGSSTPNVVIEFDSDDDGDDFSNSKIEQSNLEKPPSNSENG
chain 2: DFFHRYKHYLTITAAAKTAEAQLKWAGLVESKLRHLVTRLELVDAIALAHPFNKGFDKVYNCSSEEEAQQVASGVTLEVAYESTDHEKLANDTVNEEKADNTESKADGSENGEKQIFPVYTTTCYIGLELEKKKGHPIKRLDISWPTQEFYELCKKWDKYDDTLMNVFIKNTKNTALPDEVFEPGEERPKATKKRSTADTAHSTEQLKRQKVSTA

Variants of: B1
Assay: ITC
Conditions: with Red1 residues 288-345 (Pla1 interaction region)

Variant | Kd
chain 2 K208E R209E K211E | 2.8 µM
chain 2 K17E | 17.8 µM

Same assay, conditions: with C-terminal RRM domain of Pla1 (Pla1RRM, residues 352-566)

Variant | Kd
chain 1 V26R | 17.9 µM
